Test results as given in patent US20240141042A1 (INNATE PHARMA, published 2024).

Tests used:
[1] = biological target: T1, human NKp46 expressed at the cell surface (human, UniProt O76036 22-304); experiment: flow cytometry on HEK293T cells transfected with wild-type NKp46, antibody titrated 0.001-1 ug/ml
T1 construct: Wild-type NKp46 on cells (transfected cell lines or NK cells); also called cell line expressing the human NKp46 construct; NKp46 cell line

NKp46 mutant 6 = biological target: T2, NKp46 mutant 6 (human, UniProt O76036 22-304); experiment: flow cytometry on HEK293T cells transfected with NKp46 mutant 6 (R101A, V102A), antibody titrated 0.001-1 ug/ml
T2 construct: Expressed in transfected HEK293T cells
T2 chain: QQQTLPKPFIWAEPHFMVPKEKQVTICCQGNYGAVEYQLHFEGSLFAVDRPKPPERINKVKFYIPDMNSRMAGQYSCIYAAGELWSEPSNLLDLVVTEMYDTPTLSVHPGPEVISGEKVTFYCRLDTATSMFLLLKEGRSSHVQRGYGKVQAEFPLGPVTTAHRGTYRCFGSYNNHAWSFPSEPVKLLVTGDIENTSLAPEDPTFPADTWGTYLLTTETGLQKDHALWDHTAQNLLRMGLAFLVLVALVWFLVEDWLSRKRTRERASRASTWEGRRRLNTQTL

NKp46 mutant 19 = biological target: T3, NKp46 mutant 19 (human, UniProt O76036 22-304); experiment: flow cytometry on HEK293T cells transfected with NKp46 mutant 19 (I135A, S136A), antibody titrated 0.001-1 ug/ml
T3 construct: Expressed in transfected HEK293T cells
T3 chain: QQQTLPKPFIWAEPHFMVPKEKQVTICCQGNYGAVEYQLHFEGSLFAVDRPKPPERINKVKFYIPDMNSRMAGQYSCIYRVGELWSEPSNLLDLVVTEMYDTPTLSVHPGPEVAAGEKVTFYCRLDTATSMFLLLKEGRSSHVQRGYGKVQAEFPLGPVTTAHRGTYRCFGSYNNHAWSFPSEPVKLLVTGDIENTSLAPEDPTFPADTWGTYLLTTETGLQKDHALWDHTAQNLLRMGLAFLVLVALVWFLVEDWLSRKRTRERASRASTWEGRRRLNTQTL

NKp46 mutant 2 = biological target: T4, NKp46 mutant 2 (human, UniProt O76036 22-304); experiment: flow cytometry on HEK293T cells transfected with NKp46 mutant 2 (K41S, E42A, E119A), antibody titrated 0.001-1 ug/ml
T4 construct: Expressed in transfected HEK293T cells
T4 chain: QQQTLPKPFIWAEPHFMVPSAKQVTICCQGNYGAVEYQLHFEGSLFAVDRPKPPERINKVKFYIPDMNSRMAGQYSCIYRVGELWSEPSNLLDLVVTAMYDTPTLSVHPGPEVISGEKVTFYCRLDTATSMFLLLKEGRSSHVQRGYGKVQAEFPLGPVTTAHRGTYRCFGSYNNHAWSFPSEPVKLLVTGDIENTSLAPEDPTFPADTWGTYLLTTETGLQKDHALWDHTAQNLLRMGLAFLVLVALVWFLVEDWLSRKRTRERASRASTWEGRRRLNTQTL
Method: All the anti-NKp46 antibodies were tested for their binding to each mutant by flow cytometry. A first experiment was performed to determine antibodies that lose their binding to one or several mutants at one concentration (10 μg/ml).

NKp46 mutant Supp7 = biological target: T5, NKp46 mutant Supp7 (human, UniProt O76036 22-304); experiment: flow cytometry on HEK293T cells transfected with NKp46 mutant Supp7 (Y121A, Y194A; printed 'Mutant S7'), antibody titrated 0.001-1 ug/ml
T5 construct: Expressed in transfected HEK293T cells; also called supplementary mutant Supp7
T5 chain: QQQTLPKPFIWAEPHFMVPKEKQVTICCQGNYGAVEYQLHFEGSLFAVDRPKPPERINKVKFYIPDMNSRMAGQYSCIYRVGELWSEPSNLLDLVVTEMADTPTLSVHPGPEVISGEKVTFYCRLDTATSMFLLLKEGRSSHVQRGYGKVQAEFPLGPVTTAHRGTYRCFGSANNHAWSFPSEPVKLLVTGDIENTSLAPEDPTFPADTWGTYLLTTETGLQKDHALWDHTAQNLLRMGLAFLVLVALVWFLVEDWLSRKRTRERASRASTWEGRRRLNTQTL

NKp46 mutant Supp8 = biological target: T6, NKp46 mutant Supp8 (human, UniProt O76036 22-304); experiment: flow cytometry on HEK293T cells transfected with NKp46 mutant Supp8 (P132A, E133A; printed 'Mutant S8'), antibody titrated 0.001-1 ug/ml
T6 construct: Expressed in transfected HEK293T cells; also called supplementary mutant Supp8
T6 chain: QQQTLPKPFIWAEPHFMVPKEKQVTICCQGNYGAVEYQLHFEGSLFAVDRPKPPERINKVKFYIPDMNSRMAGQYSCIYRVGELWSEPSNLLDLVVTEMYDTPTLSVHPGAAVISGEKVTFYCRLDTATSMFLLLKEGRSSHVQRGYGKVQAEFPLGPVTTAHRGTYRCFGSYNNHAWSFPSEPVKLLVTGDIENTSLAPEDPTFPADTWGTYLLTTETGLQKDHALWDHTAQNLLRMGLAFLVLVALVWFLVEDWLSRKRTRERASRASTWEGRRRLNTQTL

NKp46 mutant Supp6 = biological target: T7, NKp46 mutant Supp6 (human, UniProt O76036 22-304); experiment: flow cytometry on HEK293T cells transfected with NKp46 mutant Supp6 (E104A, L105A; printed 'Mutant S6'), antibody titrated 0.001-1 ug/ml
T7 construct: Expressed in transfected HEK293T cells; also called supplementary mutant Supp6
T7 chain: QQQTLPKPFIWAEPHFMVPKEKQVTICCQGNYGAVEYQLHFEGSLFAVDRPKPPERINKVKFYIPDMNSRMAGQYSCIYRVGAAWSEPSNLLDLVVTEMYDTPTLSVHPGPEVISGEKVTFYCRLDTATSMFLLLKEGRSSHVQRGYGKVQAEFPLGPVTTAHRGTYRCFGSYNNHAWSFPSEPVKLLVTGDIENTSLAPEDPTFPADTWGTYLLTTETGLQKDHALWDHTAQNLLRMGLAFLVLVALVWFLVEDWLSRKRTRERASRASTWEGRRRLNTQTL

[2] = biological target: T8, Human NKp46 recombinant proteins (human, UniProt O76036 22-258); experiment: SPR, bispecific captured on Protein-A chip
T8 construct: also called recombinant human NKp46 proteins
Method: SPR measurements were performed on a Biacore T100 apparatus (Biacore GE Healthcare) at 25° C. In all Biacore experiments HBS-EP+(Biacore GE Healthcare) and NaOH 10 mM served as running buffer and regeneration buffer respectively. Sensorgrams were analyzed with Biacore T100 Evaluation software. Protein-A was purchase from (GE Healthcare). Human NKp46 recombinant proteins were cloned, produced and purified at Innate Pharma.
Protein-A proteins were immobilized covalently to carboxyl groups in the dextran layer on a Sensor Chip CM5. The chip surface was activated with EDC/NHS (N-ethyl-N′-(3-dimethylaminopropyl) carbodiimidehydrochloride and N-hydroxysuccinimide (Biacore GE Healthcare)). Protein-A was diluted to 10 μg/ml in coupling buffer (10 mM acetate, pH 5.6) and injected until the appropriate immobilization level was reached (i.e. 2000 RU). Deactivation of the remaining activated groups was performed using 100 mM ethanolamine pH 8 (Biacore GE Healthcare).

Measured: binding result

B1: NKp46-6 (antibody, V domains shown)
VH: QVQLQQPGSVLVRPGASVKLSCKASGYTFTSSWMHWAKQRPGQGLEWIGHIHPNSGISNYNEKFKGKATLTVDTSSSTAYVDLSSLTSEDSAVYYCARGGRFDDWGAGTTVTVSS
VL: DIVMTQSPATLSVTPGDRVSLSCRASQSISDYLHWYQQKSHESPRLLIKYASQSISGIPSRFSGSGSGSDFTLSINSVEPEDVGVYYCQNGHSFLMYTFGGGTKLEIK
notes: not in the list MOLECULES as an antibody; also called antibody NKp46-6; monoclonal antibody NKp46-6
not listed: [2]
binds: all other assays above

B2: CD19-F2-NKp46-3 (bispecific antibody)
chain 1: DIQLTQSPASLAVSLGQRATISCKASQSVDYDGDSYLNWYQQIPGQPPKLLIYDASNLVSGIPPRFSGSGSGTDFTLNIHPVEKVDAATYHCQQSTEDPWTFGGGTKLEIKGGGGSGGGGSGGGGSQVQLQQSGAELVRPGSSVKISCKASGYAFSSYWMNWVKQRPGQGLEWIGQIWPGDGDTNYNGKFKGKATLTADESSSTAYMQLSSLASEDSAVYFCARRETTTVGRYYYAMDYWGQGTTVTVSSGGGSSAPELLGGPSVFLFPPKPKDTLMISRTPEVTCVVVDVSHEDPEVKFNWYVDGVEVHNAKTKPREEQYNSTYRVVSVLTVLHQDWLNGKEYKCKVSNKALPAPIEKTISKAKGQPREPQVYTKPPSREEMTKNQVSLSCLVKGFYPSDIAVEWESNGQPENNYKTTVPVLDSDGSFRLASYLTVDKSRWQQGNVFSCSVMHEALHNHYTQKSLSLSPGSTGSEVQLQQSGPELVKPGASVKISCKTSGYTFTEYTMHWVKQSHGKSLEWIGGISPNIGGTSYNQKFKGKATLTVDKSSSTAYMELRSLTSEDSAVYYCARRGGSFDYWGQGTTLTVSSASTKGPSVFPLAPSSKSTSGGTAALGCLVKDYFPEPVTVSWNSGALTSGVHTFPAVLQSSGLYSLSSVVTVPSSSLGTQTYICNVNHKPSNTKVDKRVEPKSCDKTH
chain 2: DIVMTQSPATLSVTPGDRVSLSCRASQSISDYLHWYQQKSHESPRLLIKYASQSISGIPSRFSGSGSGSDFTLSINSVEPEDVGVYYCQNGHSFPLTFGAGTKLELKRTVAAPSVFIFPPSDEQLKSGTASVVCLLNNFYPREAKVQWKVDNALQSGNSQESVTEQDSKDSTYSLSSTLTLSKADYEKHKVYACEVTHQGLSSPVTKSFNRGEC
notes: Heterodimer with monomeric Fc; also called bi-specific antibody NKp46-3 (F2)
binds: [2]
